Measured values reported in patent publication US20140112931A1 (UNIVERSITE DE MONTPELLIER 1, published 2014).

Experiments:
[1] = target: T1, HER3 receptor on cells (HER3- and HER2/HER3-transfected NIH 3T3 cells, SKBR3 cells, BxPC3 cells) (human, UniProt P21860 20-1342); test: FACS competition on SKBR3 cells: heregulin against HER3-specific positive control antibody B
T1 construct: whole, on cells
Procedure: (§1) After one washing with PBS-1% BSA, anti-HER3 mAbs, at concentration giving 50% maximal binding, were added to each well for 1 h on ice.

[2] = target: T1, HER3 receptor on cells (HER3- and …); test: flow cytometry competition on SKBR3 cells; HRG varied; competitor: antibody 12H8-B11 at the concentration giving 50% maximal binding; antibody 12H8-B11 as the displaced probe, SKBR3 cells
Procedure: as §1

[3] = target: T1, HER3 receptor on cells (HER3- and …); test: flow cytometry on HER3-transfected NIH 3T3 cells
[4] = target: T2, HER2 on HER2- or HER2/HER3-transfected NIH 3T3 cells (UniProt P04626 23-1255, limits assumed); test: flow cytometry on HER2-transfected NIH 3T3 cells
T2 construct: whole, on cells

[5] = target: T1, HER3 receptor on cells (HER3- and …); test: flow cytometry on HER2/HER3-transfected NIH 3T3 cells
[6] = target: T3, EGFR on EGFR-transfected NIH 3T3 cells (UniProt P00533 25-1210, limits assumed); test: flow cytometry on EGFR-transfected NIH 3T3 cells
T3 construct: whole, on cells; also called ErbB1; HER1

[7] = target: T4, human HER3-Fc protein (R&D system) (human, UniProt P21860 20-643); test: ELISA, HER3-Fc coated at 250 ng/ml
T4 construct: Bought (R&D system); called soluble HER3-Fc; also called soluble HER3-Fc; HER3-Fc antigen; not shown: Fc part

| Binder | IC50 (read off the curve) [1] [nM] | IC50 [2] [nM] | geometric mean (flow cytometry) [3] | geometric mean (flow cytometry) [4] | geometric mean (flow cytometry) [5] | geometric mean (flow cytometry) [6] | EC50 [7] [µg/mL] |
| --- | --- | --- | --- | --- | --- | --- | --- |
| anti-HER3 antibody Ab6 (Merrimack Pharmaceuticals) (antibody, V domains shown) VH: EVQLLESGGGLVQPGGSLRLSCAASGFTFSHYVMAWVRQAPGKGLEWVSSISSSGGWTLYADSVKGRFTISRDNSKNTLYLQMNSLRAEDTAVYYCTRGLKMATIFDYWGQGTLVTVSS VL: QSALTQPASVSGSPGQSITISCTGTSSDVGSYNVVSWYQQHPGKAPKLIIYEVSQRPSGVSNRFSGSKSGNTASLTISGLQTEDEADYYCCSYAGSSIFVIFGGGTKVTVL |  |  | 7.8 | 0.3 | 14.1 | 0.2 |  |
| anti-HER3 antibody U1-59 (Amgen/U3 Pharma-Daiichi Sankyo) (antibody, V domains shown) VH: QVQLQQWGAGLLKPSETLSLTCAVYGGSFSGYYWSWIRQPPGKGLEWIGEINHSGSTNYNPSLKSRVTISVETSKNQFSLKLSSVTAADTAVYYCARDKWTWYFDLWGRGTLVTVSS VL: not shown |  |  | 9.3 | 0.4 | 15.5 | 0.2 | ~0.2 |

Now from value to binder:

| IC50 (read off the curve) [1] [nM] | IC50 [2] [nM] | geometric mean (flow cytometry) [3] | geometric mean (flow cytometry) [4] | geometric mean (flow cytometry) [5] | geometric mean (flow cytometry) [6] | EC50 [7] [µg/mL] | Binder |
| --- | --- | --- | --- | --- | --- | --- | --- |
| ~2 | ~2.5 |  |  |  |  |  | heregulin (HRG) (ligand, UniProt Q02297-6 177-237, looked up, also called HRG ligand) SHLVKCAEKEKTFCVNGGECFMVKDLSNPSRYLCKCPNEFTGDRCQNYVMASFYKHLGIEF |
|  |  | 1.8 | 0.4 | 12.4 | 0.4 |  | murine anti-HER3 monoclonal antibody 9F7-F11 (antibody, V domains shown) VH: EVKLVESGGGLVQPGGSLKLSCAASGFTFSSYTMSWVRQTPEKRLEWVAYISDGGGVTYYPDTIKGRFTISRDNAKNTLYLQMSSLKSEDTAMYYCARDRYGLFAYWGQGTLVTVSA VL: DIVMTQSQKFMSTSVGDRVSITCKASQNVGIAVAWYQQKPGQSPKLLIYSASNRYTGVPDRFTGSGSGTDFTLTISNMQSEDLADYFCQQYSNYPYTFGGGTKLEIK |
